Experimental data reported in paper PMC5253651, “Human farnesyl pyrophosphate synthase is allosterically inhibited by its own product” (Nature Communications, 2017).

Substrate: C=C(C)CCO[P@@](=O)(O)OP(=O)(O)O
Experiment: purified protein, by the assay type
Conditions: other: saturating excess of GPP (∼500-fold over enzyme, 10-fold over IPP), steady-state equation accounting for product inhibition, Kp 6 μM, 30 °C, pH 7.5

B1: human FPPS (Homo sapiens) (protein)
chain: MNGDQNSDVYAQEKQDFVQHFSQIVRVLTEDEMGHPEIGDAIARLKEVLEYNAIGGKYNRGLTVVVAFRELVEPRKQDADSLQRAWTVGWCVELLQAFFLVADDIMDSSLTRRGQICWYQKPGVGLDAINDANLLEACIYRLLKLYCREQPYYLNLIELFLQSSYQTEIGQTLDLLTAPQGNVDLVRFTEKRYKSIVKYKTAFYSFYLPIAAAMYMAGIDGEKEHANAKKILLEMGEFFQIQDDYLDLFGDPSVTGKIGTDIQDNKCSWLVVQCLQRATPEQYQILKENYGQKEAEKVARVKALYEELDLPAVFLQYEEDSYSHIMALIEQYAAPLPPAVFLGLARKIYKRRK
**Q.** Which Km does the source give for B1 here?
**A.** 1.1 µM
